Measurements reported in the supplement of paper PMC9112550, “Optimization of the antimicrobial peptide Bac7 by deep mutational scanning” (BMC Biology, 2022).

Test system: Escherichia coli TOP10
Experiment: shrunken log2 fold change of peptide-encoding DNA abundance (4.5 h post-induction vs induction); higher = less antimicrobial activity (less host growth inhibition)
Details: time post-induction: 4.5 h; library: site-saturation at positions 5, 18, 19, 20
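Also: peptides expressed intracellularly from a pBAD plasmid library in pooled LB shake-flask culture, induced with 0.3% L-arabinose, DNA abundance read by NGS, three biological replicates, DESeq2 with apeglm shrinkage.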

Sequence: RRIRTRPPRLPRPRPRPTSQPRP
- shrunken log2 fold change: -0.00402

Sequence: RRIRVRPPRLPRPRPRPHCLPRP
- shrunken log2 fold change: -1.63

Sequence: RRIRERPPRLPRPRPRPDMLPRP
- shrunken log2 fold change: -0.166

Sequence: RRIRYRPPRLPRPRPRPTCCPRP
- shrunken log2 fold change: -0.194

Sequence: RRIRARPPRLPRPRPRPQSAPRP
- shrunken log2 fold change: 0.153

Sequence: RRIRERPPRLPRPRPRPPGIPRP
- shrunken log2 fold change: -0.0106

Sequence: RRIRHRPPRLPRPRPRPRGRPRP
- shrunken log2 fold change: -0.0974

Sequence: RRIRQRPPRLPRPRPRPTYYPRP
- shrunken log2 fold change: -0.524

Sequence: RRIRIRPPRLPRPRPRPEHPPRP
- shrunken log2 fold change: -0.182

Sequence: RRIRYRPPRLPRPRPRPTFSPRP
- shrunken log2 fold change: -0.383

Sequence: RRIRRRPPRLPRPRPRPWYHPRP
- shrunken log2 fold change: -0.0689

Sequence: RRIRQRPPRLPRPRPRPHPHPRP
- shrunken log2 fold change: -0.136

Sequence: RRIRVRPPRLPRPRPRPIHEPRP
- shrunken log2 fold change: 0.0255

Sequence: RRIRWRPPRLPRPRPRPQNAPRP
- shrunken log2 fold change: -0.182

Sequence: RRIRARPPRLPRPRPRPFKQPRP
- shrunken log2 fold change: 0.123

Sequence: RRIRWRPPRLPRPRPRPAMAPRP
- shrunken log2 fold change: 0.529

Sequence: RRIRARPPRLPRPRPRPEVLPRP
- shrunken log2 fold change: 0.709

Sequence: RRIRLRPPRLPRPRPRPAYMPRP
- shrunken log2 fold change: -0.275

Sequence: RRIRSRPPRLPRPRPRPSVIPRP
- shrunken log2 fold change: -0.602

Sequence: RRIRLRPPRLPRPRPRPLKPPRP
- shrunken log2 fold change: 0.171

Sequence: RRIRVRPPRLPRPRPRPPHNPRP
- shrunken log2 fold change: 0.154

Sequence: RRIRYRPPRLPRPRPRPAEFPRP
- shrunken log2 fold change: -0.266

Sequence: RRIRIRPPRLPRPRPRPHALPRP
- shrunken log2 fold change: -0.127

Sequence: RRIRMRPPRLPRPRPRPETGPRP
- shrunken log2 fold change: 0.321

Sequence: RRIRIRPPRLPRPRPRPNRIPRP
- shrunken log2 fold change: -0.481

Sequence: RRIRTRPPRLPRPRPRPCMVPRP
- shrunken log2 fold change: -0.576

Sequence: RRIRVRPPRLPRPRPRPCCIPRP
- shrunken log2 fold change: -0.0914

Sequence: RRIRVRPPRLPRPRPRPWAYPRP
- shrunken log2 fold change: -0.323

Sequence: RRIRERPPRLPRPRPRPCYCPRP
- shrunken log2 fold change: -0.539

Sequence: RRIRGRPPRLPRPRPRPLHSPRP
- shrunken log2 fold change: 0.529

Sequence: RRIRWRPPRLPRPRPRPFVLPRP
- shrunken log2 fold change: 0.231

Sequence: RRIRHRPPRLPRPRPRPNIRPRP
- shrunken log2 fold change: 0.0598

Sequence: RRIRWRPPRLPRPRPRPQLSPRP
- shrunken log2 fold change: -0.211

Sequence: RRIRNRPPRLPRPRPRPCTCPRP
- shrunken log2 fold change: -0.0075

Sequence: RRIRKRPPRLPRPRPRPHNWPRP
- shrunken log2 fold change: 0.172

Sequence: RRIRDRPPRLPRPRPRPDSCPRP
- shrunken log2 fold change: 0.0444

Sequence: RRIRKRPPRLPRPRPRPEHAPRP
- shrunken log2 fold change: 1.12

Sequence: RRIRNRPPRLPRPRPRPMRNPRP
- shrunken log2 fold change: 0.115

Sequence: RRIRFRPPRLPRPRPRPNRNPRP
- shrunken log2 fold change: -0.836

Sequence: RRIRKRPPRLPRPRPRPSPLPRP
- shrunken log2 fold change: 0.446

Sequence: RRIRFRPPRLPRPRPRPSPHPRP
- shrunken log2 fold change: 0.0339

Sequence: RRIRNRPPRLPRPRPRPGFMPRP
- shrunken log2 fold change: -0.0522

Sequence: RRIRGRPPRLPRPRPRPYKKPRP
- shrunken log2 fold change: -0.186

Sequence: RRIRQRPPRLPRPRPRPENPPRP
- shrunken log2 fold change: 0.0317

Sequence: RRIRLRPPRLPRPRPRPQKRPRP
- shrunken log2 fold change: 0.0648

Sequence: RRIRCRPPRLPRPRPRPYHSPRP
- shrunken log2 fold change: -0.73

Sequence: RRIRDRPPRLPRPRPRPWKCPRP
- shrunken log2 fold change: 0.118

Sequence: RRIRIRPPRLPRPRPRPTCFPRP
- shrunken log2 fold change: -0.249

Sequence: RRIRRRPPRLPRPRPRPIYEPRP
- shrunken log2 fold change: 0.0785

Sequence: RRIRLRPPRLPRPRPRPTIRPRP
- shrunken log2 fold change: -0.0201

Sequence: RRIRPRPPRLPRPRPRPQTGPRP
- shrunken log2 fold change: 0.142

Sequence: RRIRCRPPRLPRPRPRPLGDPRP
- shrunken log2 fold change: 1.87

Sequence: RRIRVRPPRLPRPRPRPYSIPRP
- shrunken log2 fold change: 0.0569

Sequence: RRIRHRPPRLPRPRPRPFKCPRP
- shrunken log2 fold change: -0.0134

Sequence: RRIRIRPPRLPRPRPRPAKVPRP
- shrunken log2 fold change: -0.224

Sequence: RRIRDRPPRLPRPRPRPCTKPRP
- shrunken log2 fold change: -0.0891

Sequence: RRIRNRPPRLPRPRPRPMTLPRP
- shrunken log2 fold change: -0.337

Sequence: RRIRMRPPRLPRPRPRPRWQPRP
- shrunken log2 fold change: 0.146

Sequence: RRIRIRPPRLPRPRPRPNTHPRP
- shrunken log2 fold change: -0.677

Sequence: RRIRNRPPRLPRPRPRPSFDPRP
- shrunken log2 fold change: -0.427

Sequence: RRIRTRPPRLPRPRPRPGKLPRP
- shrunken log2 fold change: -0.394

Sequence: RRIRERPPRLPRPRPRPEPPPRP
- shrunken log2 fold change: 0.595

Sequence: RRIRIRPPRLPRPRPRPIVFPRP
- shrunken log2 fold change: -0.144

Sequence: RRIRYRPPRLPRPRPRPGYWPRP
- shrunken log2 fold change: -0.154

Sequence: RRIRPRPPRLPRPRPRPICEPRP
- shrunken log2 fold change: 0.227

Sequence: RRIRARPPRLPRPRPRPCSSPRP
- shrunken log2 fold change: 0.0291

Sequence: RRIRARPPRLPRPRPRPWETPRP
- shrunken log2 fold change: 4.22

Sequence: RRIRCRPPRLPRPRPRPCLQPRP
- shrunken log2 fold change: -0.129

Sequence: RRIRYRPPRLPRPRPRPWWPPRP
- shrunken log2 fold change: -0.254

Sequence: RRIRWRPPRLPRPRPRPRDHPRP
- shrunken log2 fold change: 0.526

Sequence: RRIRKRPPRLPRPRPRPERVPRP
- shrunken log2 fold change: 0.281

Sequence: RRIRKRPPRLPRPRPRPRMVPRP
- shrunken log2 fold change: 0.168

Sequence: RRIRIRPPRLPRPRPRPVRMPRP
- shrunken log2 fold change: 0.109

Sequence: RRIRCRPPRLPRPRPRPVSPPRP
- shrunken log2 fold change: 0.198

Sequence: RRIRYRPPRLPRPRPRPIGPPRP
- shrunken log2 fold change: -0.00962

Sequence: RRIRHRPPRLPRPRPRPQWLPRP
- shrunken log2 fold change: 0.134

Sequence: RRIRQRPPRLPRPRPRPARHPRP
- shrunken log2 fold change: 0.0911

Sequence: RRIRQRPPRLPRPRPRPYTNPRP
- shrunken log2 fold change: -0.149

Sequence: RRIRPRPPRLPRPRPRPFNFPRP
- shrunken log2 fold change: -0.155

Sequence: RRIRPRPPRLPRPRPRPFKWPRP
- shrunken log2 fold change: 0.0103

Sequence: RRIRARPPRLPRPRPRPKVQPRP
- shrunken log2 fold change: 0.0571

Sequence: RRIRCRPPRLPRPRPRPPNVPRP
- shrunken log2 fold change: 0.213

Sequence: RRIRCRPPRLPRPRPRPYWSPRP
- shrunken log2 fold change: -1.2

Sequence: RRIRMRPPRLPRPRPRPEIAPRP
- shrunken log2 fold change: 0.0315

Sequence: RRIRGRPPRLPRPRPRPKCIPRP
- shrunken log2 fold change: 0.0819

Sequence: RRIRHRPPRLPRPRPRPAQWPRP
- shrunken log2 fold change: 0.112

Sequence: RRIRERPPRLPRPRPRPVDWPRP
- shrunken log2 fold change: 0.0136

Sequence: RRIRKRPPRLPRPRPRPTHWPRP
- shrunken log2 fold change: 0.796

Sequence: RRIRARPPRLPRPRPRPFHLPRP
- shrunken log2 fold change: -0.36

Sequence: RRIRSRPPRLPRPRPRPPPCPRP
- shrunken log2 fold change: 0.408

Sequence: RRIRHRPPRLPRPRPRPISPPRP
- shrunken log2 fold change: -0.256

Sequence: RRIRSRPPRLPRPRPRPGKIPRP
- shrunken log2 fold change: -0.596

Sequence: RRIRMRPPRLPRPRPRPHMVPRP
- shrunken log2 fold change: -0.0116

Sequence: RRIRWRPPRLPRPRPRPRVQPRP
- shrunken log2 fold change: 0.927

Sequence: RRIRARPPRLPRPRPRPCQNPRP
- shrunken log2 fold change: 0.105

Sequence: RRIRIRPPRLPRPRPRPDAIPRP
- shrunken log2 fold change: 0.0309

Sequence: RRIRPRPPRLPRPRPRPQIMPRP
- shrunken log2 fold change: -0.265

Sequence: RRIRMRPPRLPRPRPRPIYVPRP
- shrunken log2 fold change: -0.165

Sequence: RRIRIRPPRLPRPRPRPVKAPRP
- shrunken log2 fold change: -0.0571

Sequence: RRIRKRPPRLPRPRPRPIHGPRP
- shrunken log2 fold change: -0.122

Sequence: RRIRDRPPRLPRPRPRPGRVPRP
- shrunken log2 fold change: 0.166

Sequence: RRIRCRPPRLPRPRPRPKFTPRP
- shrunken log2 fold change: -0.391

Sequence: RRIRYRPPRLPRPRPRPQWLPRP
- shrunken log2 fold change: -0.0323

Sequence: RRIRYRPPRLPRPRPRPMVEPRP
- shrunken log2 fold change: -0.201

Sequence: RRIRWRPPRLPRPRPRPLSYPRP
- shrunken log2 fold change: -0.243

Sequence: RRIRERPPRLPRPRPRPTFVPRP
- shrunken log2 fold change: 0.0579

Sequence: RRIRPRPPRLPRPRPRPHGMPRP
- shrunken log2 fold change: -0.531

Sequence: RRIRGRPPRLPRPRPRPPRRPRP
- shrunken log2 fold change: 1.28

Sequence: RRIRQRPPRLPRPRPRPDNDPRP
- shrunken log2 fold change: -0.0011

Sequence: RRIRCRPPRLPRPRPRPWHKPRP
- shrunken log2 fold change: -0.256

Sequence: RRIRNRPPRLPRPRPRPSPWPRP
- shrunken log2 fold change: 0.0438

Sequence: RRIRFRPPRLPRPRPRPWDDPRP
- shrunken log2 fold change: -0.636

Sequence: RRIRFRPPRLPRPRPRPVQGPRP
- shrunken log2 fold change: -0.169

Sequence: RRIRRRPPRLPRPRPRPSDYPRP
- shrunken log2 fold change: -0.185

Sequence: RRIRCRPPRLPRPRPRPGMLPRP
- shrunken log2 fold change: -0.135

Sequence: RRIRLRPPRLPRPRPRPEWEPRP
- shrunken log2 fold change: 0.0256

Sequence: RRIRSRPPRLPRPRPRPQKLPRP
- shrunken log2 fold change: 0.0126

Sequence: RRIRMRPPRLPRPRPRPTELPRP
- shrunken log2 fold change: 0.172

Sequence: RRIRHRPPRLPRPRPRPVKTPRP
- shrunken log2 fold change: -0.164

Sequence: RRIRRRPPRLPRPRPRPLEHPRP
- shrunken log2 fold change: 0.21

Sequence: RRIRPRPPRLPRPRPRPGKTPRP
- shrunken log2 fold change: 0.294

Sequence: RRIRGRPPRLPRPRPRPSYCPRP
- shrunken log2 fold change: 0.237

Sequence: RRIRDRPPRLPRPRPRPDSIPRP
- shrunken log2 fold change: 0.0726

Sequence: RRIRPRPPRLPRPRPRPYCWPRP
- shrunken log2 fold change: -0.473

Sequence: RRIRDRPPRLPRPRPRPHTWPRP
- shrunken log2 fold change: -0.491
